What was measured:
[1] = target: T1, Her2 on the surface of Her2-expressing cell lines (human, UniProt P04626 23-1255); assay: flow cytometry, SKBR3 cells
T1 construct: whole, on cells; The cell line of each value is named under assay; also called ErbB2; Her2 receptor

[2] = target: T1, Her2 on the surface of Her2-expressing …; assay: flow cytometry, MDA-MB-231 cells
[3] = target: Recombinant human HER2 (human, UniProt P04626 23-652); assay: SPR, antibody captured on anti-human IgG, recombinant human HER2 as analyte, 1:1 Langmuir; average, n 4
[4] = target: T1, Her2 on the surface of Her2-expressing …; assay: flow cytometry, SKOV3 cells
[5] = target: T1, Her2 on the surface of Her2-expressing …; assay: flow cytometry, SKOV3 cells; remark: listed apart in the source

Row | Binder | Bmax [1] | Kd [1] [nM] | Bmax [2] | Kd [2] [nM] | Kd [3] [nM] | koff [3] [s⁻¹] | kon [3] [M⁻¹ s⁻¹] | Bmax [4] | Kd [4] [nM] | Bmax [5]
1 | OA2-Fab-Her2 (antibody) chain 1: not shown chain 2: not shown chain 3: EPKSSDKTHTCPPCPAPELLGGPSVFLFPPKPKDTLMISRTPEVTCVVVDVSHEDPEVKFNWYVDGVEVHNAKTKPREEQYNSTYRVVSVLTVLHQDWLNGKEYKCKVSNKALPAPIEKTISKAKGQPREPQVYVYPPSRDELTKNQVSLTCLVKGFYPSDIAVEWESNGQPENNYKTTPPVLDSDGSFALVSKLTVDKSRWQQGNVFSCSVMHEALHNHYTQKSLSLSPGK | 64800 | 10.8 | 412 | 9.97 | 0.435 | 0.000131 | 313000 | 7070 | 4.72 | 
2 | OA4-scFv-BID2 (antibody) chain 1: QVQLVQSGAEVKKPGESLKISCKGSGYSFTSYWIAWVRQMPGKGLEYMGLIYPGDSDTKYSPSFQGQVTISVDKSVSTAYLQWSSLKPSDSAVYFCARHDVGYCTDRTCAKWPEWLGVWGQGTLVTVSSGGGGSSGGGSGGGGSQSVLTQPPSVSAAPGQKVTISCSGSSSNIGNNYVSWYQQLPGTAPKLLIYDHTNRPAGVPDRFSGSKSGTSASLAISGFRSEDEADYYCASWDYTLSGWVFGGGTKLTVLGAAEPKSSDKTHTCPPCPAPELLGGPSVFLFPPKPKDTLMISRTPEVTCVVVDVSHEDPEVKFNWYVDGVEVHNAKTKPREEQYNSTYRVVSVLTVLHQDWLNGKEYKCKVSNKALPAPIEKTISKAKGQPREPQVYTYPPSRDELTKNQVSLTCLVKGFYPSDIAVEWESNGQPENNYKTTPPVLDSDGSFALVSKLTVDKSRWQQGNVFSCSVMHEALHNHYTQKSLSLSPGK chain 2: not shown |  |  |  |  |  |  |  |  |  | 7950
